Measurements from PMC12647017, “Discovery and optimization of a synthetic small protein domain targeting antibodies” (Frontiers in Bioengineering and Biotechnology, 2025).

Legend:
[1] = Solubility / precipitation observed during production, dialysis and purification; type: physicochemical; conditions: lead ligand sequences from WWp5_4 naïve library
Experimental: Therefore, after expression the soluble fractions were further centrifuged at 42,000 g for 20 min at 4 °C. As the samples were diluted (∼5 mg/mL in 25 mL lysis buffer), the soluble fractions were lyophilized and resuspended in 4 mL of water. The samples were dialyzed (Membranes Spectra Pre-Treated 1 kDa, Carl Roth) to Binding buffer without imidazole (20 mM Sodium Phosphate, 500 mM Sodium Chloride pH 7.4) for 24 h at 16 °C. The samples were quantified by […] (typically ∼6 mg/mL), this solution was diluted 1:2 in Binding buffer (20 mM Sodium Phosphate, 500 mM Sodium Chloride, 20 mM imidazole pH 7.4) and purified in a gravitational flow with 6 mL of resin (IMAC Sepharose 6 Fast Flow (Ni^2+), Cytiva) packed in a PD-10 column. The column was prepared using the indications of the manufacturer. The binding of the protein to the column was maximized by an incubation for 1 h at room temperature in agitation at 40rpm. The resin was washed 4 x column volumes (CV) with binding buffer. The elution as achieved by incubation for 15min with elution buffers. We used a gradient with 3 x CV elution buffer 1 (binding buffer with 100 mM imidazole) and 3 x CV elution buffer 2 (binding buffer with 200 mM imidazole).
The most enriched elutions in WW domains (60%–70% purity) were combined and dialysed against PBS1x (10 mM Na2HPO4, 1.8 mM KH2PO4, 2.7 mM KCl, 137 mM NaCl pH 7.4) with routine changes of buffer up to 48 h at 16 °C. Following the samples were concentrated with a Amicon-Ultra15 3 kDa MWCO (Millipore) with centrifugation conditions 4,900 g, 30 min, 4 °C. The final samples were quantified by BCA assay.
Size Exclusion Chromatography (SEC). The samples were further purified by SEC to achieve 90% purity in a AKTA system (Cytiva). The column Superdex 75 Increase 10/300 GL (29148721, Cytiva) was washed with water and equilibrated 2CV in PBS1x, as described by the manufacturer. As calibrants we prepare a mixture: 2 mg/mL of Bovine Serum Albumin (66 kDa, BP9702-100, FisherScientific), Ovalbumin (42 kDa, A5503-1G, Sigma), Chicken Lysozyme ([…], 62,971–10G-F, Fluka) and hPin1_WW chemically synthesized (5 kDa, produced in ([Dias et al., 2015])) in PBS 1x, this sample was filtered with 0.2 µm PES (514–0073, VWR) and analysed. The operation conditions: flow 0.5 mL/min, 0.05 CV in PBS1x and injection of 250 µL and run for 2 CV with PBS 1x at 16 °C. The same method was used for the WW domain samples. After purifications samples were quantified for total protein by BCA assay, as described previously and used for characterization.

human polyclonal IgG = assay: Screening ELISA of phage display clones (crude extracts) against human polyclonal IgG; type: binding; conditions: crude extract of clones from 6th panning round, 1 µg/well human polyclonal IgG, blocked 3% (w/v) BSA in TBS, 50 µL extract 1 h at 37 °C, Anti-HA tag-HRP, ABTS, Abs405nm
Experimental: The biopanning of the previously developed WWp5_4 library ([Dias et al., 2025]) (Figures 1A,B) against human polyclonal IgG was performed for six rounds, after which an enrichment of ligands was observed (Supplementary Table S3). To assess the binding of each clone to the target, 192 clones were selected and expressed at small scale in 96-deep well blocks, following conditions previously optimised. After cell lysis, the supernatant containing the soluble fraction was used for ELISA assays. The results in Figure 1C illustrate the difference in the absorbance profile of the screened ligands. […] From these 26, only 21 presented high quality for reliable sequencing results. The sequence alignment and diversity of the different binders is represented in Table 1 and Figure 2A.
Small Scale Protein Expression and screening ELISA: From the output of the 6th round of panning, 94 isolated colonies were peaked into two sterile 96-well deep well 2mL round-bottom plates and grown with 200 µL of LB with ampicillin, 125 rpm, 37 °C, overnight (master plates). The following day, to one of the master plates was added glycerol to achieve a final concentration of 15% and was stored at -80 °C. Regarding the other master plate, 12 µL of this culture was added to another sterile 96-well deep well 2 mL round-bottom plate with 1.2 mL of LB with ampicillin and was grown at 37 °C, 125 rpm until OD600nm achieved 0.5-0.6. After this, protein expression was induced with 1 mM IPTG and continued incubation with the previous conditions. The following day, the cultures were sonicated for 30 minutes in ice-water bath and centrifuged for 10 minutes at 2500 x g. The supernatant was collected and transferred to a new microplate to be used in the screening for the ELISA (crude extract). For the ELISA, three microplates were tested: A) Sample binding plate; B) Negative control plate; C) Expression plate. On the sample binding plate, 1 µg/well of human polyclonal IgG was immobilized on the plate at 4 °C, overnight. On the following day, the target was removed, and the wells were washed once with TBS, then the plate was blocked with 300 µL 3% (w/v) BSA in TBS for 1 hour at 37 °C. After this, the wells were washed once with TBS, and were then incubated with 50 µL of crude extract (containing WW domain) for 1 hour at 37 °C. The plate was then washed 5 times with TBS-T, and then incubated with 100 µL of the Anti-HA tag-HRP conjugated antibody (diluted 1:1000) for 1 hour at 37 °C. The plate was then washed once with TBS-T and 4 times with TBS, and then incubated with the substrate ABTS for 1 hour at the dark at 37 °C. The results were then analysed in a microplate reader (TECAN) and the Abs405nm was then measured.
For the Negative control plate the protocol was the same as for the Binding microplate, except for the target immobilization. Instead of having IgG, only coating buffer was added. This plate allows to detect clones that unspecific bind to BSA present in the Blocking Buffer. For the Expression plate the protocol started at the step of incubation with the crude extract, and from there the steps were the same as the Binding microplate. This plate allows to detect clone’s basal expression level.

## SMGLPPGWDEYKT RRFKL GKTYYYNH HILS KTSTWTDPRMSS [Clone E6]
[1]
  solubility observed in production and purification: limited solubility
Human polyclonal IgG
  ELISA signal: High (high binders (Abs>0.4))
